From PMC11696893, “Enzymatic synthesis of reactive RNA probes containing squaramate-linked cytidine or adenosine for bioconjugations and cross-linking with lysine-containing peptides and proteins”

Tests used:
[1] = target: JEV NS5 (Japanese encephalitis virus, UniProt P27395 2528-3432); test: EMSA; settings: protein: recombinant; label: radioactive
[2] = target: SARS-CoV-2 nucleoprotein (SC_NP) (SARS-CoV-2, UniProt P0DTC9 1-419); test: EMSA; settings: protein: recombinant; chain copies: 2; label: radioactive
[3] = target: YFV NS5 (Yellow fever virus, UniProt P03314 2507-3411); test: EMSA; settings: protein: recombinant; label: radioactive
[4] = target: T7 RNA polymerase (bacteriophage T7, UniProt P00573 1-883); settings: label: radioactive
[5] = target: HIV reverse transcriptase (HIV-rt) (HIV, UniProt P04585;P04585 588-1147;588-1027); settings: protein: recombinant; copies: 1;1; label: radioactive

B1: 36_vRNA_1gCESQ (ssRNA)
RNA: GAUACUAAGGGAAUAAAUUGAGAGAGAUAAAUUUAU
modifications: C5 = 5-(ethoxysquaramate-linked) cytidine (CESQ)
[1]
  binding result: binds
[2]
  binding result: binds
[3]
  binding result: binds
[4]
  binding result: no binding
[5]
  binding result: binds
